Assay [1] relates to human uterine cancer cells (MMMT539). In words: Antibody drug conjugate cytotoxicity (ADC) assay, MMMT539. Type of assay: cell-based. Conditions: FIG. 3A-B. As to the method: The cytotoxic effect of anti-human SAS1B mAbs SB2 and SB5 on human uterine cancer cells (MMMT539) was examined by antibody drug conjugate cytotoxicity (ADC) assay. Human uterine cancer cells MMMT539 were seeded in triplicate on 96 well plate overnight and then treated with SB2 or SB5 and anti-mouse Fab-cleavable-Duocarmycin complex for ˜90 h. The presence of viable live cells per well was measured by total cellular ATP content in relative luminescence unit (RLU). Viability of control live cells (100%) was determined from average of 9 wells in terms of total cellular ATP (in RLU) containing the constant 15 nM Fab-CL-DMDM for each set of antibody/reagent. […] Staurosporine, a general protein kinase inhibitor, was used to induce apoptosis in 1% DMSO as a positive control for the assay.

The next assay deals with T1, human SAS1B (Homo sapiens, UniProt Q6HA08).
T1 construct: made in house; host or cells: E. coli
T1 sequence (Q6HA08 24-431): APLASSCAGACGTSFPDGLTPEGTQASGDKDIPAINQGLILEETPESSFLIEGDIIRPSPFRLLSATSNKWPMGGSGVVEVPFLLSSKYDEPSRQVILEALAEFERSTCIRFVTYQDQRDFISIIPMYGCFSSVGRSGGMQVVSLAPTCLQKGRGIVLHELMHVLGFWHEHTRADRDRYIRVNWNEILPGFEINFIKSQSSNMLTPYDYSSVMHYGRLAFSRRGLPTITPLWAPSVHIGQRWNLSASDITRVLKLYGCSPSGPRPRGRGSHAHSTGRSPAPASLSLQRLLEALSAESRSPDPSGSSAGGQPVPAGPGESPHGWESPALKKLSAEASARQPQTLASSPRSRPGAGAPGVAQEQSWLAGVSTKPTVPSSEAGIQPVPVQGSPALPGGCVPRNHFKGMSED
In words: Western blot of human SAS1B probed with anti-human SAS1B murine mAbs. As to conditions: for Specifically binds human SAS1B (and not mouse SAS1B): Table 1. The format is binding. From the text: A western blot of human SAS1B and mouse SAS1B was probed with anti-human SAS1B murine monoclonal antibodies SB1, SB2, SB3, SB4, SB5, SB6, and SB7.
(In western blotting, separated proteins are transferred to a membrane and probed.)

The target of assay [2] is T2, human SAS1B protein with a C-terminal V5 tag expressed by HEK293T cells (Homo sapiens, UniProt Q6HA08).
T2 construct: expressed in transfected cells; host or cells: HEK293T
T2 sequence (Q6HA08 24-431): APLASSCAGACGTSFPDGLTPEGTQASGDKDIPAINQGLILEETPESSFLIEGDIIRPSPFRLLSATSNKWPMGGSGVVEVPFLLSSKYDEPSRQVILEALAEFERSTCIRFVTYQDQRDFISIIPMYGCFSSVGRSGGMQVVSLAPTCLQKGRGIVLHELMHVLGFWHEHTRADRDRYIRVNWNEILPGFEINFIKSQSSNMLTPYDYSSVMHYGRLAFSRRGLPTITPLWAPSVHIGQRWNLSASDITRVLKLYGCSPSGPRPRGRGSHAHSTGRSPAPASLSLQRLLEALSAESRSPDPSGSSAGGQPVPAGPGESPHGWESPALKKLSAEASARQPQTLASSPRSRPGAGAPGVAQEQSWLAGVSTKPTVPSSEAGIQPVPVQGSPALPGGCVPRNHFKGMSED
The experiment in a line: Double immunofluorescence on fixed and permeabilized HEK293T cells transfected with SAS1B SV-A with V5 tag. The format is cell-based. As to conditions: for IF signal / colocalization with V5-tag epitope signal: SV-A transfected HEK293T, PFA fixed, methanol permeabilized, mAbs at 10 ug/ml. As for the experimental part: Experiments were conducted to determine the specificity of anti-human SAS1B monoclonal antibodies SB1, SB2, SB3, SB4, SB5, SB6 and SB7 against the human SAS1B protein with a C-terminal V5 tag expressed by HEK293T cells by double immuno-fluorescence from two different SAS1B epitopes. HEK293T cells were seeded at ˜100,000 per well of a 24 well plate containing a lysine-coated 12 mm coverslip. 24 hours later, the cells were transfected with 1 ug of SV-A plasmid with 2 ul of TURBOFECT® transfection reagent followed by no change of media. 48 h later the cells were PFA (paraformaldehyde) fixed and methanol permeabilized for an IF study as follows.
The cells were removed from cell culture media and fixed in 4% PFA in PBS, 300 ul for 15 min. The cells were washed in 1 ml PBS in wells for 3 times and permeabilized in methanol (100%) for 15 min in 0.5 ml at RT. The cells were washed in PBS 1 ml for 3 times and blocked in complete culture media (DMEM) with 5% normal goat serum (NGS) for 30 min (i.e. BB, blocking buffer). The first antibody in BB was added for 1 h at 10 ug/ml for mouse monoclonal antibodies (SB1, SB2, SB3, SB4, SB5, SB6, SB7) and 5 ug/ml for anti-V5 DYLIGHT® 488 (green) rabbit (a rabbit polyclonal antibody to V5 tag). The cells were washed in PBS 3 times. The second antibody in BB (Goat anti-mouse Alexa Flour 594, red) was added for 1 h at 5 ug/ml (1:200 dilution). The cells were washed in PBS 3 times. The cells were mounted in slow fade DAPI 3 ul and stored at 4° C. before confocal imaging.

For assay [3], the target named is T3, full-length SAS1B splice variant A polypeptide (Homo sapiens, UniProt Q6HA08).
T3 construct: made in house
T3 sequence (Q6HA08 24-431): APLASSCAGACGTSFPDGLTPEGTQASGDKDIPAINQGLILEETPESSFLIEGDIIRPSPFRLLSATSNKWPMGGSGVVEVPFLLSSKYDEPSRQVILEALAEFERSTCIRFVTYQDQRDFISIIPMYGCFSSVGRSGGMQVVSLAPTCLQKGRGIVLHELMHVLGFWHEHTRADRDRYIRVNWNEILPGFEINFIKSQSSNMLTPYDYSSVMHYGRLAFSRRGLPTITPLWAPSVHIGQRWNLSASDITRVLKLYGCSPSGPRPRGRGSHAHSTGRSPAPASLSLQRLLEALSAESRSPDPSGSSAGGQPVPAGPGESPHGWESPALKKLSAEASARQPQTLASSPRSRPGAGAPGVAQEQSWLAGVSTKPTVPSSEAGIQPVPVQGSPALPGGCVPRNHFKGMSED
In words: Western blot with mammalian cell-expressed recombinant SAS1B, full length. Type of assay: binding. As for the experimental part: (§1) SAS1B monoclonal antibodies were analyzed with mammalian cell-expressed recombinant SAS1B by western blotting.

Assay [4] has as its target T4, SAS1B extracellular domain (aa 164-431) polypeptide (Homo sapiens, UniProt Q6HA08).
T4 construct: SAS1B extracellular domain (aa 164-431) polypeptide; made in house
T4 sequence (Q6HA08 164-431): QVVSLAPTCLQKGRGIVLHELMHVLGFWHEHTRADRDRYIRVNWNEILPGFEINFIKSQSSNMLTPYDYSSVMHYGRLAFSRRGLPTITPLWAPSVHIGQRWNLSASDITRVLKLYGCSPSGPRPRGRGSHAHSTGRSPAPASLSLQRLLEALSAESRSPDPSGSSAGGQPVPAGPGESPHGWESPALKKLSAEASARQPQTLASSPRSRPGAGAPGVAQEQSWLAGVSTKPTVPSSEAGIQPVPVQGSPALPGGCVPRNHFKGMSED
In words: Western blot with mammalian cell-expressed recombinant SAS1B, extracellular domain. Type of assay: binding. As to the method:
as §1

Turning to `CN[C@@H]1C[C@H]2O[C@@](C)([C@@H]1OC)n1c3ccccc3c3c4c(c5c6ccccc6n2c5c31)C(=O)NC4` [Staurosporine, reference compound], the “Cell killing” value in assay [1] is “killed the cancer cells in a dose dependent manner”.

B1: SB6: mouse anti-human SAS1B monoclonal antibody, IgG2b; VH SEQ ID NO:16, VL SEQ ID NO:18 (antibody, listed as Mus musculus, V domains shown)
VH: EVQLQQSGPELVKPGSSVKISCKPSGYTFTDYNMVWMKQSHGKSLEWIGAINPNNGGTTYNQKFKGKATLTVDKSSSTAYMELRSLTSEDSAVYYCAPNWDWFAYWGQGTLVTVSA
VL: DVLMTQIPLSLPVSLGDQASISCRSSQSILHSNGNTYLEWYLQKPGQSPKLLIYKVSNRFSGVPDRFSGSGSGTDFTLKISRVEAEDLGVYYCFQGSHVPFTFGSGTKLEIK
As to B1, in the assay with human SAS1B, the “Reactivity on western blot of human SAS1B and mouse SAS1B” value was “specific to the human SAS1B only”; the “Specificity in western blot for human SAS1B antigen in an E. coli protein background” value is reported as “demonstrated specificity”; the “Specifically binds human SAS1B (and not mouse SAS1B)” value is on record as “Yes”. In assay [2], the “IF signal / colocalization with V5-tag epitope signal” value is “colocalize (merge) with V5-tag epitope signal” and the “Signal on mock transfected HEK293T cells” value was “no V5 signal or SAS1B signal”. Moreover, in assay [3], the “Reaction with full-length SAS1B splice variant A polypeptide” value is reported as “reacted with the full-length SAS1B splice variant A polypeptide”. The “Reaction with SAS1B extracellular domain (aa 164-431) polypeptide” value in assay [4] is “none of the them reacted”.

B2: SB7: mouse anti-human SAS1B monoclonal antibody, IgG2b; VH SEQ ID NO:16, VL SEQ ID NO:18 (antibody, listed as Mus musculus, V domains shown)
VH: EVQLQQSGPELVKPGSSVKISCKPSGYTFTDYNMVWMKQSHGKSLEWIGAINPNNGGTTYNQKFKGKATLTVDKSSSTAYMELRSLTSEDSAVYYCAPNWDWFAYWGQGTLVTVSA
VL: DVLMTQIPLSLPVSLGDQASISCRSSQSILHSNGNTYLEWYLQKPGQSPKLLIYKVSNRFSGVPDRFSGSGSGTDFTLKISRVEAEDLGVYYCFQGSHVPFTFGSGTKLEIK
On to B2, for which, in the assay with human SAS1B, the “Reactivity on western blot of human SAS1B and mouse SAS1B” value is listed as “specific to the human SAS1B only”; the “Specificity in western blot for human SAS1B antigen in an E. coli protein background” value is given as “demonstrated specificity”; the “Specifically binds human SAS1B (and not mouse SAS1B)” value was “Yes”. Besides, in assay [2], the “IF signal / colocalization with V5-tag epitope signal” value was “colocalize (merge) with V5-tag epitope signal” and the “Signal on mock transfected HEK293T cells” value was “no V5 signal or SAS1B signal”. Further, the “Reaction with full-length SAS1B splice variant A polypeptide” value in assay [3] is reported as “reacted with the full-length SAS1B splice variant A polypeptide”. The “Reaction with SAS1B extracellular domain (aa 164-431) polypeptide” value in assay [4] is “none of the them reacted”.

Source of the values: US20210269549A1, “ANTI-SAS1B ANTIBODIES, ASSOCIATED METHODS OF USE, AND COMPOSITIONS AND METHODS FOR DETECTING AND TREATING CANCER” (UNIVERSITY OF VIRGINIA PATENT FOUNDATION, priority 2015, published 2021).
